{"source": "paper PMC4107134", "key": {"[1]": {"target": "integrin αIIbβ3, wild type (UniProt P05106)", "test": "pull-down"}, "[2]": {"target": "integrin αIIbΔ996β3 (αIIb tail truncated after GFFKR) (UniProt P05106)", "test": "pull-down"}}, "data": [{"substance": "talin head domain (THD, talin residues 1-433), purified (from UniProt P26039 1-433) (domain or fragment)", "values": [{"measurement": "Kd", "setting": "[1]", "value": 0.213, "unit": "µM"}, {"measurement": "Kd", "setting": "[2]", "value": 0.206, "unit": "µM"}]}]}
